This data set concerns the molecule itself. In words: SEC-MALS. Background: In gel filtration, larger molecules generally elute earlier.

B1: His6-tagged Hvo_0019 (enzyme, Haloferax volcanii)
chain: MSVRDEFDAWAADGRDKGMEDRHWHTAKHALARMPVEEGDTVVDLGTGSGYALRALRDTKGIGRGFGLDGSPEMVQNARAYTDTDDLSFLVGDFDDLPFDDDSVDHVWSMEAFYYAADPHHTLEEIARILKPGGTFYCAVNYYEENVHSHEWQEHISIDMTRWSHAEYREAFRDAGLHVAEQDSIADLDIDIPAATEFPTDDWETREAMVERYRTFGTLLTVGVAP
Turning to B1, the binding result is reported as “binds”.

Values taken from PMC6144793 (Nucleic Acids Research, 2018).
